From patent US20100129344A1, “MEDICAL USES AND THERAPIES BASED UPON THE ACTION OF AZUROCIDIN ON IGFBP-1” (priority 2005, published 2010) come the findings set out here.

The target of series [1] is T1, IGFBP-1 (Homo sapiens, UniProt P08833).
T1 construct: purchased Kabi Pharmacia (Sweden), donated
T1 sequence (P08833 26-259): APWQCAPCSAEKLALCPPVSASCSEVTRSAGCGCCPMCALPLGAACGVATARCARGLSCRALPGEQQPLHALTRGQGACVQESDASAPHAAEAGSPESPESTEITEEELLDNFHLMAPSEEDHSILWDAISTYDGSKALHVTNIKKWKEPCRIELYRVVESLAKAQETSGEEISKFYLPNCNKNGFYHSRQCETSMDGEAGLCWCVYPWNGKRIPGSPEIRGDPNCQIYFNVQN
The series is described as follows: Azurocidin-dependent IGFBP-1 protease activity (SDS-PAGE, ECL or silver staining). Particulars: for effect on IGFBP-1 (proteolysis): commercial recombinant protein from mouse myeloma cells. Type of series: biochemical. The procedure:
Recombinant phosphorylated IGFBP-1 was used as substrate and incubations were carried out under neutral conditions for 2 h at 37 C. IGFBP-1 fragments were separated on SDS-PAGE, and detected by ECL as described in the methods. Panel A: Incubations with 0.25 μL eluate (HE) from heparin affinity chromatography (50 μl urine equiv.) in the presence and absence of anti-azurocidin antibody; and 1 μl HE of the loading material (L), and the flow through after affinity chromatography on protein G columns without (G) and with bound anti-chymase (C) or anti-azurocidin (A) antibodies. Panel B: Incubations in the presence and absence of 25 ng anti-azurocidin antibody with increasing volumes of white cell extract from the individual with a specific IGFBP-1 protease in urine compared to the white cell extract pooled from 6 healthy subjects;
Recombinant IGFBP-1 was incubated with the eluate from heparin affinity chromatography (HE) with a ratio of azurocidin:BP-1 of 1:3,500. After the times indicated, proteins were detected by silver staining after SDS-PAGE;
Gels were fixed, dried and analysed with the Fuji PhosphoImage program (Fuji Co., Stockholm, Sweden). Biotinylated IGFBP-1 and its fragments were separated on 14% SDS-PAGE under reducing conditions, transferred to PVDF (Biorad, Sundbyberg, Sweden), incubated with neutravidin-horseradish peroxidase (Pierce Biotechnology Inc, Rochester, Ill.) and detected by ECL (Amersham Biosciences, Uppsala, Sweden). Silver staining of proteins and fragments was performed after denaturing 12% PAGE under reducing conditions (SilverQuest and NuPAGE, Invitrogen, Stockholm, Sweden).
Heparin affinity chromatography was carried out in batches using heparin-agarose gel (Pharmacia). Urine was diluted 1:5 in 10 mM sodium phosphate, with 0.25 M NaCl buffer, pH 7 and incubated with gel for 30 min at 4 C. The gel was transferred to a column and washed with 10 times the gel volume of buffer. Heparin binding proteins were eluted in loading buffer containing 2M NaCl and the eluate was desalted, concentrated using a 10 kDa spin column and stored at −80 C. Concentrated material derived from 700 ml urine were applied to C4 reverse-phase HPLC, in 0.1% TFA on an acetonitrile gradient of 0-100%. Immunoaffinity chromatography was performed using monoclonal anti-azurocidin antibody attached to protein G Sepharose (Sigma-Aldrich, Sweden). In brief, antibody bound gel was incubated with the eluate from heparin affinity chromatography for 2 h at 22 C, and transferred to a Bio-Spin chromatography column (BioRad). The flow-through was collected for analysis of protease activity. As controls, an additional column was prepared with a monoclonal antibody against human mast cell chymase and a second column with no bound antibody.

Series [2] has as its target T1, IGFBP-1. The series is described as follows: Sequence analysis of IGFBP-1 fragments after azurocidin-dependent proteolysis. It counts as biochemical. The protocol:
A: Recombinant npIGFBP-1 was incubated without (−) and with (+) 0.25 μl partially purified azurocidin in a protease:substrate ratio of 1:3 500 for 2 h at 37 C. The fragments were purified on HPLC. N-, purified fragments with the N-terminal sequence of IGFBP-1, APWQCAP-, c-, small fragment with the sequence STYDGSK-, C-, purified C-terminal fragments with the sequence TNIKKWK-. Samples were separated on 12% SDS-PAGE and visualised by silver staining. Molecular mass markers are indicated by the arrows. B: Summary of sequence analysis of IGFBP-1 fragments after azurocidin-dependent proteolysis. N-terminal sequence analysis was performed on fragments purified by HPLC on 4 separate occasions. C-terminal sequence analysis was perform on one HPLC run. Cleavage sites are indicated by the arrows. a, the primary cleavage site present in 4 runs. b, a secondary cleavage site, present in 3 runs. c, cleavage sites, each identified in only one of the four runs. […]
The primary cleavage site in IGFBP-1 was determined by HPLC-separation of phosphorylated IGFBP-1 after incubation with heparin eluate, and HPLC purification of fragments, followed by N- and C-terminal sequencing. […] N- and C-terminal sequencer degradations were performed on HPLC purified proteins in ABI instruments as described (refs 2 and 3), From this analysis, the quantity of azurocidin quantity in urine was estimated to be 25 pmol/100 ml.

B1: Recombinant human azurocidin^27-250: recombinant azurocidin 27-250 purified from murine myeloma cells, R&D Systems (protein)
chain: IVGGRKARPRQFPFLASIQNQGRHFCGGALIHARFVMTAASCFQSQNPGVSTVVLGAYDLRRRERQSRQTFSISSMSENGYDPQQNLNDLMLLQLDREANLTSSVTILPLPLQNATVEAGTRCQVAGWGSQRSGGRLSRFPRFVNVTVTPEDQCRPNNVCTGVLTRRGGICNGDGGTPLVCEGLAHGVASFSLGPCGRGPDFFTRVALFRDWIDGVLNNPGPGP
Take B1: the “effect on IGFBP-1 (proteolysis)” value with IGFBP-1 [1] (data not shown) is on record as “no effect”; with IGFBP-1 [1] (data not shown, listed as recombinant azurocidin), “lacked activity”.

B2: partially purified azurocidin: desalted eluate of heparin affinity chromatography of human urine, containing azurocidin, myeloperoxidase and lactoferrin (protein)
chain: IVGGRKARPRQFPFLASIQNQGRHFCGGALIHARFVMTAASCFQSQNPGVSTVVLGAYDLRRRERQSRQTFSISSMSENGYDPQQNLNDLMLLQLDREANLTSSVTILPLPLQNATVEAGTRCQVAGWGSQRSGGRLSRFPRFVNVTVTPEDQCRPNNVCTGVLTRRGGICNGDGGTPLVCEGLAHGVASFSLGPCGRGPDFFTRVALFRDWIDGVLNNPGP
Turning to B2, the “secondary cleavage site in IGFBP-1” value with IGFBP-1 [2] (present in 3 of the HPLC runs) is on record as “Val^141-Thr^142”. Besides, in the series with IGFBP-1 [2] (present in all 4 HPLC runs, confirmed by C-terminal sequence analysis), the “primary cleavage site in IGFBP-1” value was “Ile^130-Ser^131”. Moreover, the “IGFBP-1 proteolytic activity after exposure to 0.1% TFA” value in the series with IGFBP-1 [1] (0.1% TFA in HPLC buffer, lyophilization, reconstitution in assay buffer) is on record as “abolished”. For the same molecule, the IGFBP-1 protease activity entry in the series with IGFBP-1 [1] (after heparin affinity chromatography of urine) was “present”. Moreover, the “IGFBP-1 proteolytic activity after reduction with dithiothreitol” value in the series with IGFBP-1 [1] (data not shown) is reported as “loss of activity”.
